Experiment [1] addresses T1, full-length human GIPR (GenBank NM_000164) with an N-terminal FLAG tag on HEK-293T cells (human), P48546.
T1 chain: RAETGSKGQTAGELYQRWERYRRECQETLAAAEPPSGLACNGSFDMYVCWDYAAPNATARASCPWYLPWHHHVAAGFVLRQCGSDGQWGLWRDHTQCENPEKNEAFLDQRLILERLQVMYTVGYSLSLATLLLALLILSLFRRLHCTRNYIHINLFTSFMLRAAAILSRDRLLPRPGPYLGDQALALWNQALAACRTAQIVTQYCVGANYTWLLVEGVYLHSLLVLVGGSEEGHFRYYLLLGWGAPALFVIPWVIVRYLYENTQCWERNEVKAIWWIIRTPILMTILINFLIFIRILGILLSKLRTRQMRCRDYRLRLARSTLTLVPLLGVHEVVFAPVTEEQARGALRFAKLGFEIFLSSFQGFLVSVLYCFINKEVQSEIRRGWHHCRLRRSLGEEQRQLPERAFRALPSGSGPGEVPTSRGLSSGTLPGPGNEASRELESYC
The experiment is described as follows: cell-based or functional assay.

Experiment [2] concerns the target T2, full-length human GLP-1R (GenBank NM_002062) with an N-terminal FLAG tag on HEK-293T cells (human), P43220.
T2 chain: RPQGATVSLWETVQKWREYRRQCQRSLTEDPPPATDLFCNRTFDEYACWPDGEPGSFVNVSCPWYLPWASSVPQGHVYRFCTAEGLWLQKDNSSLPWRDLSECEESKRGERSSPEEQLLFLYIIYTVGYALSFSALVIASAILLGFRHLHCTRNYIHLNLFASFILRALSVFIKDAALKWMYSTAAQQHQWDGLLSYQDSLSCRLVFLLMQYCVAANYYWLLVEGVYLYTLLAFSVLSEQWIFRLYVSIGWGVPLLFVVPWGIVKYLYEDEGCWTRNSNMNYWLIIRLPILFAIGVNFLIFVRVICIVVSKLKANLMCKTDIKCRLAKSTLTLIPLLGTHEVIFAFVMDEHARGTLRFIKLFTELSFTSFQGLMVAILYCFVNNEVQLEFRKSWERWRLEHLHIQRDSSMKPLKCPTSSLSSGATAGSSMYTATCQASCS
The experiment is described as follows: cell-based or functional assay.

Numbered stars: 1 amine (or outer) side, 2 acyl side, 3 side chain; on linkers, the order of the positions; unused ones are H or OH. Square brackets hold non-standard residues; d marks the D form. Primed or numbered codes have the meaning given here. Side chains are listed from the residue outwards. Ends that are not written are not given here. * marks the point of attachment. C20 diacid = O=C(O)CCCCCCCCCCCCCCCCCCC(=O)*; C18 diacid = O=C(O)CCCCCCCCCCCCCCCCC(=O)*; C16 diacid = O=C(O)CCCCCCCCCCCCCCC(=O)*; γGlu = O=C(O)[C@H](CCC(=O)[*:2])N[*:1]; Iva = CC[C@](C)(N)C(=O)O; PEG3′ = not defined here; Aib = CC(C)(N)C(=O)O

GIP EC50(pM) and GLP EC50 data for 22 molecules are collected here from patent US20220135638A1 (Takeda / Millennium, published 2022).

Y[Aib]EGTFISDYSIALDR[Aib]HQ[Aib]NFVNW[Iva]LAQRPK([PEG3′-γGlu-C20 diacid])SGAPPPS (ends and bridges not checked) [Compound No. 514] registered a GIP EC50(pM) in experiment [1] of 1.14 pM. Further, the GLP EC50 in experiment [2] was over 1000 nM.
For Y[Aib]EGTFISDYSIALDR[Aib]HQ[Aib]NFVNW[Iva]LAQRPSSGK([PEG3′-γGlu-C18 diacid])PPPS (ends and bridges not checked) [Compound No. 522], in that order: 1.51 pM and over 1000 nM.
Consider Y[Aib]EGTFISDYSIALDR[Aib]HQ[Aib]NFVNW[Iva]LAQRPSSGAK([PEG3′-PEG3′-γGlu-C16 diacid])PPS (ends and bridges not checked) [Compound No. 500], for which the GIP EC50(pM) in experiment [1] was determined as 0.59 pM. This molecule had a GLP EC50 in experiment [2] of over 1000 nM.
Y[Aib]EGTFISDYSIALDR[Aib]HQ[Aib]NFVNW[Iva]LAQRPSSGAPK([PEG3′-PEG3′-γGlu-C20 diacid])PS (ends and bridges not checked) [Compound No. 505] yielded a GIP EC50(pM) in experiment [1] of 2.11 pM. In experiment [2], the GLP EC50 is over 1000 nM.
Regarding Y[Aib]EGTFISDYSIALDR[Aib]HQ[Aib]NFVNW[Iva]LAQRPSSGAK([PEG3′-γGlu-C16 diacid])PPS (ends and bridges not checked) [Compound No. 524], in experiment [1], the GIP EC50(pM) came out at 1.29 pM. The molecule also returned a GLP EC50 in experiment [2] of over 1000 nM.
Molecule Y[Aib]EGTFISDYSIALDR[Aib]HQ[Aib]NFVNW[Iva]LAQRPK([PEG3′-γGlu-C18 diacid])SGAPPPS (ends and bridges not checked) [Compound No. 513] came in with a GIP EC50(pM) in experiment [1] of 0.5 pM. The GLP EC50 in experiment [2] was over 1000 nM.
In experiment [1], Y[Aib]EGTFISDYSIALDR[Aib]HQ[Aib]NFVNW[Iva]LAQRPSSGAK([PEG3′-PEG3′-γGlu-Ida])PPS (ends and bridges not checked) [Compound No. 501] displayed a GIP EC50(pM) of 0.92 pM. The GLP EC50 in experiment [2] was over 1000 nM.
For Y[Aib]EGTFISDYSIALDR[Aib]HQ[Aib]NFVNW[Iva]LAQRPSSGK([PEG3′-γGlu-C20 diacid])PPPS (ends and bridges not checked) [Compound No. 523], in that order: 2.98 pM and over 1000 nM.
For Y[Aib]EGTFISDYSIALDR[Aib]HQ[Aib]NFVNW[Iva]LAQRPSSK([PEG3′-γGlu-C16 diacid])APPPS (ends and bridges not checked) [Compound No. 518], the GIP EC50(pM) in experiment [1] turned out to be 0.61 pM. This molecule had a GLP EC50 in experiment [2] of over 1000 nM.
For Y[Aib]EGTFISDYSIALDR[Aib]HQ[Aib]NFVNW[Iva]LAQRPSSGK([PEG3′-γGlu-C16 diacid])PPPS (ends and bridges not checked) [Compound No. 521], the GIP EC50(pM) in experiment [1] amounted to 0.9 pM. The GLP EC50 in experiment [2] was over 1000 nM.
For the molecule Y[Aib]EGTFISDYSIALDR[Aib]HQ[Aib]NFVNW[Iva]LAQRK([PEG3′-γGlu-C16 diacid])SSGAPPPS (ends and bridges not checked) [Compound No. 509], the GIP EC50(pM) in experiment [1] came to 0.54 pM. The GLP EC50 in experiment [2] was over 1000 nM.
The like results for Y[Aib]EGTFISDYSIALDR[Aib]HQ[Aib]NFVNW[Iva]LAQRPK([PEG3′-γGlu-C16 diacid])SGAPPPSS (ends and bridges not checked) [Compound No. 512] were, in that order, 0.53 pM and 126 nM.
In experiment [1], Y[Aib]EGTFISDYSIALDR[Aib]HQ[Aib]NFVNW[Iva]LAQRPSSGAPK([PEG3′-PEG3′-γGlu-C16 diacid])PS (ends and bridges not checked) [Compound No. 503] displayed a GIP EC50(pM) of 0.49 pM. In experiment [2], this molecule registered a GLP EC50 of over 1000 nM.
As to Y[Aib]EGTFISDYSIALDR[Aib]HQ[Aib]NFVNW[Iva]LAQRK([PEG3′-γGlu-C18 diacid])SSGAPPPS (ends and bridges not checked) [Compound No. 510], in experiment [1], the GIP EC50(pM) was 0.83 pM. This molecule showed a GLP EC50 in experiment [2] of over 1000 nM.
For Y[Aib]EGTFISDYSIALDR[Aib]HQ[Aib]NFVNW[Iva]LAQRPSSGAPK([PEG3′-PEG3′-γGlu-Ida])PS (ends and bridges not checked) [Compound No. 504], in that order: 1.08 pM and over 1000 nM.
Y[Aib]EGTFISDYSIALDR[Aib]HQ[Aib]NFVNW[Iva]LAQRPSK([PEG3′-γGlu-C18 diacid])GAPPPS (ends and bridges not checked) [Compound No. 516] returned a GIP EC50(pM) in experiment [1] of 1.02 pM. The molecule further returned a GLP EC50 in experiment [2] of over 1000 nM.
With Y[Aib]EGTFISDYSIALDR[Aib]HQ[Aib]NFVNW[Iva]LAQRK([PEG3′-γGlu-C20 diacid])SSGAPPPS (ends and bridges not checked) [Compound No. 511], the GIP EC50(pM) in experiment [1] came to 1.61 pM. This molecule also had a GLP EC50 in experiment [2] of over 1000 nM.
Y[Aib]EGTFISDYSIALDR[Aib]HQ[Aib]NFVNW[Iva]LAQRPSK([PEG3′-γGlu-C16 diacid])GAPPPS (ends and bridges not checked) [Compound No. 515] showed a GIP EC50(pM) in experiment [1] of 0.54 pM. Also, the GLP EC50 in experiment [2] was over 1000 nM.
On to Y[Aib]EGTFISDYSIALDR[Aib]HQ[Aib]NFVNW[Iva]LAQRPSSK([PEG3′-γGlu-C18 diacid])APPPS (ends and bridges not checked) [Compound No. 519], for which the GIP EC50(pM) in experiment [1] stood at 1.26 pM. In addition, the GLP EC50 in experiment [2] is over 1000 nM.
Y[Aib]EGTFISDYSIALDR[Aib]HQ[Aib]NFVNW[Iva]LAQRPSSGAK([PEG3′-PEG3′-γGlu-C20 diacid])PPS (ends and bridges not checked) [Compound No. 502] gave a GIP EC50(pM) in experiment [1] of 1.78 pM. In experiment [2], this molecule yielded a GLP EC50 of over 1000 nM.
In experiment [1], Y[Aib]EGTFISDYSIALDR[Aib]HQ[Aib]NFVNW[Iva]LAQRPSSK([PEG3′-γGlu-C20 diacid])APPPS (ends and bridges not checked) [Compound No. 520] gave a GIP EC50(pM) of 2.68 pM. This molecule displayed a GLP EC50 in experiment [2] of over 1000 nM.
Y[Aib]EGTFISDYSIALDR[Aib]HQ[Aib]NFVNW[Iva]LAQRPSK([PEG3′-γGlu-C20 diacid])GAPPPS (ends and bridges not checked) [Compound No. 517] yielded a GIP EC50(pM) in experiment [1] of 1.99 pM. The same molecule yielded a GLP EC50 in experiment [2] of over 1000 nM.
